Results: patent publication US20220306744A1
One block for each binder: values may come before it.

What was measured:
[1] = target: human PD-1 expressed on cells (CHO TREX human PD1 cell line, full-length human PD-1 sequence) (human) (UniProt Q15116); assay: cell-based or functional assay
[2] = target: cynomolgus PD-1 recombinant protein (Acro Biosystems cat no. PD-1-C5254) (cynomolgus); assay: HTRF binding assay, 2 nM recombinant PD1, anti His-D2 and anti human-Fc cryptate
[3] = target: recombinant human PD-1 Fc chimera (human) (UniProt Q15116); assay: as above
[4] = target: human PD-1 expressed on cells (CHO TREX human PD1 cell line, full-length human PD-1 sequence) (human) (UniProt Q15116); assay: FMAT: inhibition of human Fc tagged human PD-L1 (400 pM) binding to CHO human PD-1 cells
[5] = target: Strep tagged recombinant human PD-1 (human) (UniProt Q15116); assay: SPR Biacore T200, single cycle kinetics, Strep tagged human PD-1 amine coupled, 1:1 model
[6] = target: recombinant human PD-1 Fc chimera (human) (UniProt Q15116); assay: SPR Biacore T200, single cycle kinetics, human Fc tagged PD-1 captured on Protein G, 1:1 model
[7] = target: recombinant human PD-1 Fc chimera (human) (UniProt Q15116); assay: SPR Biacore T200, single cycle kinetics, human Fc tagged PD-1 captured on Protein G, 1:1 model; second line of values in the continuation row of the name

Chain of recombinant human PD-1 Fc chimera (human) (Q15116 25-167 limits assumed, stated change not applied): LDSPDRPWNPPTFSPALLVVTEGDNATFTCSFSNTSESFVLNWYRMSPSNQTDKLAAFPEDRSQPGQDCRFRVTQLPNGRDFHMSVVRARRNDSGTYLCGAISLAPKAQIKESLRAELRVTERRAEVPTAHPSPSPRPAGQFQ
Chain of Strep tagged recombinant human PD-1 (human) (Q15116 25-167 limits assumed): as the sequence (Q15116 25-167 limits assumed, stated change not applied) above
Chain of human PD-1 expressed on cells (CHO TREX human PD1 cell line, full-length human PD-1 sequence) (human) (Q15116 21-288): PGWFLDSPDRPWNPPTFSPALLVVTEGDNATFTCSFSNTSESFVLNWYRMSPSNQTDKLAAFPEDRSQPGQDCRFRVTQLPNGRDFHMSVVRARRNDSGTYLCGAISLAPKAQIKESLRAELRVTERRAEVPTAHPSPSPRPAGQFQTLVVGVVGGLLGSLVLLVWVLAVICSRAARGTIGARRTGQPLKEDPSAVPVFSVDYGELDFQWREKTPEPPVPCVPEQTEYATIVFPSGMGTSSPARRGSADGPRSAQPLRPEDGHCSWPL

EC50 (M), NFAT-Luciferase reporter gene assay [1]: 2.5e-09 M
EC50 [2]: 1.6 nM
EC50 [3]: 1 nM
IC50 [4]: 4.4 nM
Kd [5]: 0.134 nM
koff [5]: 4.68e-05 s⁻¹
kon [5]: 349000 M⁻¹ s⁻¹
Kd [6]: 0.0517 pM
koff [6]: 2.67e-08 s⁻¹
kon [6]: 516000 M⁻¹ s⁻¹
Kd [7]: 0.0166 pM
koff [7]: 1.32e-08 s⁻¹
kon [7]: 793000 M⁻¹ s⁻¹
B1: 1.57b-4GS-1.1a-4GS-MSA binder (protein, part only; not given: Albumin binder, second linker, His tag, not shown: another chain or arm of the molecule; large carriers; small tags and cut ends)
chain: QVQLVESGGGLVKPGGSLRLSCAASGFTFSDNSMTWMRQAPGKGLEWVSYISSGGGVIFYADSVKGRFTISRDNAKNSLYLQMNSLRADDTAVYYCAREAPLRLGESPHDAFDISGQGTMVTVSSGGGGSGGGGSGGGGSGGGGSEVQLLESGGGSVQPGRSLRLSCAASGFTFDDHAMHWVRQAPGKGLEWVSGISWNSGSMGYADSVKDRFTISRDNAKSSLYLQMNSLRAEDTALYYCVREKGPGLTGSTADYYGLDVWGQGTMVTVSS

EC50 (M), NFAT-Luciferase reporter gene assay [1]: 3.2e-09 M
Kd [6]: 8.06 pM
koff [6]: 4.23e-06 s⁻¹
kon [6]: 524000 M⁻¹ s⁻¹
B2: 1.57b-4GS-MSA binder-4GS-1.1a (protein, part only; not given: Middle albumin binder and linkers, not shown: another chain or arm of the molecule; large carriers; small tags and cut ends)
VH 1: QVQLVESGGGLVKPGGSLRLSCAASGFTFSDNSMTWMRQAPGKGLEWVSYISSGGGVIFYADSVKGRFTISRDNAKNSLYLQMNSLRADDTAVYYCAREAPLRLGESPHDAFDISGQGTMVTVSS
VH 2: EVQLLESGGGSVQPGRSLRLSCAASGFTFDDHAMHWVRQAPGKGLEWVSGISWNSGSMGYADSVKDRFTISRDNAKSSLYLQMNSLRAEDTALYYCVREKGPGLTGSTADYYGLDVWGQGTMVTVSS
modifications: In the real molecule both VH are parts of one polypeptide: 1.57b, 4GS (SEQ ID NO 1105), MSA binder VH, 4GS (SEQ ID NO 1105), 1.1a. They are given here as two separate chains because the middle domain has no letters.

EC50 (M), NFAT-Luciferase reporter gene assay [1]: 4.7e-09 M
B3: 1.92b-4GS-1.39a-4GS-MSA binder (protein, part only; not given: mouse serum albumin binder, part only)
chain, part: EVQLVESGGGLVKPGGSLRLSCAASGFTFSDESMTWMRQAPGKGLEWVSYISSGGGVKFYADSVKGRFTISRDNAKNSLYLQMNSLRAEDTAVYYCAREAPLRLGESPHDAFDISGQGTMVTVSSGGGGSGGGGSGGGGSGGGGSEVQLVESGGGLVQPGRSLRLSCAASGFTFDDYALHWVRQAPGKDLEWVSGISWNGGSYGYADSVKGRFTISRDNAKNSLYLQMNSLRAEDTALYYCVREKGPGLTGSTADYYGLDAWGQGTMVTVSSGGGGSGGGGSGGGGSGGGGS
